{
  "source": "patent US11766480B2",
  "about": "“Multivalent peptoid oligomers, pharmaceutical compositions and methods of using same” (NEW YORK UNIVERSITY, priority 2012, dated 2023)",
  "key": {"HEK293 cells": {"tested_on": "HEK293 cells", "assay": "Cell toxicity assay (CyQUANT cell viability), HEK293", "format": "cell-based, human", "conditions": "1 μM, 72 hours", "procedure": "(§1) To evaluate the general cell toxicity of oligomers 6 and 7, a cell viability assay was utilized.\n(§2) HEK293 and PC3 cells were seeded in triplicate on 96-well plates (Corning) in DMEM and HAM'S—F media supplemented with 10% FBS, 1% L-Gln and 1% PS, respectively. HEK293 and PC3 cells were then treated with conjugates (1 μM and 20 μM, respectively) and allowed to incubate at 37° C. for 72 hours. Following treatment, relative cell viability was measured using the CyQUANT reagent according to the manufacturer's instructions. Fluorescence intensity was quantified as described above. All data were processed using GraphPad Prism."}, "PC3 cells": {"tested_on": "PC3 cells", "assay": "Cell toxicity assay (CyQUANT cell viability), PC3", "format": "cell-based", "conditions": "20 μM, 72 hours", "procedure": "as §1, §2"}, "LNCaP-abl cells": {"tested_on": "LNCaP-abl cells", "assay": "Cell-cycle distribution by FACS / flow cytometry", "format": "cell-based, human", "conditions": "1 μM, 48 h", "procedure": "LNCaP-abl cells were grown on 10 cm culture dishes (BD Falcon) to approximately 70% confluence in RPMI media supplemented with 10% charcoal-stripped FBS, 1% L-Gln, and 1% PS. Cells were then treated with conjugate 1 or 2 to a final concentration of 1 μM and allowed to incubate at 37° C. for 48 h. Following treatment, cells were fixed and suspended in 2 mL of 1:3 HBSS:Phosphate-Citrate Buffer (pH 8.0) containing 0.1% Triton X-100. Cells were centrifuged (2,000 rpm for 5 min) and suspended in 1 mL of propidium-iodide solution (1 mg propidium iodine, 10 mg EDTA, 250 μL Igepal, and 2.2 μg μL-1 RNAase in 50 mL of PBS). Cells were then harvested for cell-cycle analysis by filtration (CellTrics, 100 μm) into conical tubes (Falcon) and analyzed by flow cytometry (Becton-Dickinson FACScalibur). All data were analyzed using FlowJo software.\nThe inventors analyzed cell-cycle distribution of LNCaP-abl cells treated with either oligomer 6 or 7 utilizing fluorescence-activated cell sorting (FACS) analysis. These studies provide a quantitative assessment of normal and apoptotic nuclei along with cell distribution in the G0/G1, S, and G2/M phases of the cell-cycle."}, "AR": {"target": "T1, AR (Homo sapiens, UniProt P10275, T878A)", "T1 construct": "endogenous in cells; host or cells: LNCaP-abl", "T1 sequence (P10275 1-920 T878A)": "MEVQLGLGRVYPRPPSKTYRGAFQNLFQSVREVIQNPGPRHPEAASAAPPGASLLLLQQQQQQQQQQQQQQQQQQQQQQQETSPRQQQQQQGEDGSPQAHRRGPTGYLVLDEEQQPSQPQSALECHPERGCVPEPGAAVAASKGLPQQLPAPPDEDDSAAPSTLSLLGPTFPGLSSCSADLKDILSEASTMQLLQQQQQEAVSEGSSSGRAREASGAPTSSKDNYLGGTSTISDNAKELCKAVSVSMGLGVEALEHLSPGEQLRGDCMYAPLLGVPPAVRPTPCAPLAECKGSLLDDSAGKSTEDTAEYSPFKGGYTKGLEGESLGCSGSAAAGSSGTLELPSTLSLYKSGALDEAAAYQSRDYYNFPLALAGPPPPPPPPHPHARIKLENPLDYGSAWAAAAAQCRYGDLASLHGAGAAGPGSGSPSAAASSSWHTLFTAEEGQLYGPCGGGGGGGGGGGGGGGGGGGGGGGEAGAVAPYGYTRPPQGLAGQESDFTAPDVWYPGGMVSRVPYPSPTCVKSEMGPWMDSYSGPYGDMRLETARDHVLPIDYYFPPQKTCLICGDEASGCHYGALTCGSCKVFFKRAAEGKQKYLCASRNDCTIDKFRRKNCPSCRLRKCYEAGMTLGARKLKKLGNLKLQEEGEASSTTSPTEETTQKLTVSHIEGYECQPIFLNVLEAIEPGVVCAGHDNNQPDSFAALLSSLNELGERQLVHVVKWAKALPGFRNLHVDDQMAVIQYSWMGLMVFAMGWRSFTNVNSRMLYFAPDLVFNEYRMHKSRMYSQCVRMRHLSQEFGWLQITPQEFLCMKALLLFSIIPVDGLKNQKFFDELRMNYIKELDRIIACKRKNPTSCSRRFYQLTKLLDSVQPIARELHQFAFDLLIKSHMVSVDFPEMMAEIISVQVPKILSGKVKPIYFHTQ", "assay": "Chromatin immunoprecipitation of AR at the PSA enhancer in LNCaP-abl cells", "format": "cell-based", "conditions": "R-1881 10 nM alone, positive control", "protocol": "Following treatment, proteins were double cross-linked with DSP (Pierce) for 20 min and 1% formalin for 10 min. Cells were lysed, and nuclei were collected, lysed in buffer (1% SDS, 50 mM Tris-HCl (pH 8.0), 10 mM EDTA), and sonicated for 12 min (30 s on, 30 s off) utilizing a Bioruptor sonicator (Diagenode, model XL). Sonicated lysates were precleared for 2 h with Protein A/G agarose beads blocked with salmon sperm DNA (Millipore). […] Control ChIP was concurrently performed with the same quantity of normal mouse and rabbit IgG sera. Immunocomplexes were then washed and cross-linking was reversed. DNA was isolated with a PCR purification kit (Qiagen) according to the manufacturer's instructions, and real-time PCR was performed. Relative enrichment of indicated genomic locus was calculated as a percentage of 4% input normalized to IgG. All data were processed using GraphPad Prism."}},
  "note": "“Also recorded” adds a separate entry of the source.",
  "data": [
    {"smiles": "COCCN(CC(N)=O)C(=O)CN(CCOC)C(=O)CN(CCCn1cc([C@]2(O)CCC3C4CCC5=CC(=O)CC[C@]5(C)C4CC[C@@]32C)nn1)C(=O)CN(CCOC)C(=O)CN(CCOC)C(=O)CN(CCOC)C(=O)CN(CCOC)C(=O)CN(CCOC)C(=O)CN(CCOC)C(=O)CN(CCOC)C(=O)CN(CCOC)C(=O)CNCCCn1cc([C@]2(O)CCC3C4CCC5=CC(=O)CC[C@]5(C)C4CC[C@@]32C)nn1", "note": "(stereo partly shown) [Oligomer 6]", "values": [
      {"measurement": "cytotoxic effects in HEK293 cells", "setting": "HEK293 cells", "value": "did not exhibit cytotoxic effects; also recorded: cytotoxicity was not observed"},
      {"measurement": "cytotoxic effects in AR-deficient PC3 cells", "setting": "PC3 cells", "value": "did not exhibit cytotoxic effects; also recorded: cytotoxicity was not observed"},
      {"measurement": "apoptotic cell population", "setting": "LNCaP-abl cells", "value": "no increase in the apoptotic cell population"}
    ]},
    {"smiles": "COCCN1CC(=O)N(CCCn2cc([C@]3(O)CCC4C5CCC6=CC(=O)CC[C@]6(C)C5CC[C@@]43C)nn2)CC(=O)N(CCOC)CC(=O)N(CCOC)CC(=O)N(CCCn2cc([C@]3(O)CCC4C5CCC6=CC(=O)CC[C@]6(C)C5CC[C@@]43C)nn2)CC(=O)N(CCOC)CC1=O", "note": "(stereo partly shown) [Oligomer 7]", "values": [
      {"measurement": "cytotoxic effects in HEK293 cells", "setting": "HEK293 cells", "value": "did not exhibit cytotoxic effects; also recorded: cytotoxicity was not observed"},
      {"measurement": "cytotoxic effects in AR-deficient PC3 cells", "setting": "PC3 cells", "value": "did not exhibit cytotoxic effects; also recorded: cytotoxicity was not observed"},
      {"measurement": "apoptotic cell population", "setting": "LNCaP-abl cells", "value": "no increase in the apoptotic cell population"}
    ]},
    {"smiles": "C[C@]1(O)CC[C@H]2[C@@H]3CCC4=CC(=O)CCC4=C3C=C[C@@]21C", "note": "[Oligomer R-1881]", "values": [
      {"measurement": "AR recruitment to the PSA enhancer", "setting": "AR", "value": "promoted AR recruitment"}
    ]}
  ]
}
